Assay [1] has as its target T1, human ICOS expressed on cells (human, UniProt Q9Y6W8 21-199).
T1 construct: also called CHO-S cells transfected with human ICOS; hICOS
T1 sequence: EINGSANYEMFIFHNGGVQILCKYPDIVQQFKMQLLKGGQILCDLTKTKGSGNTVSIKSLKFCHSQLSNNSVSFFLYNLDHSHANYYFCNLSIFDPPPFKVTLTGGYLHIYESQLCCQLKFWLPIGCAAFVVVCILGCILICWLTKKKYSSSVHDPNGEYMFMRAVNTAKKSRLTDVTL
Description: Flow cytometry on CHO-S human ICOS cells, anti-human IgG AF647, N=1. How it is done:
CHO—S cells transfected with either human ICOS or mouse ICOS were resuspended in FACS buffer (PBS+1% w/v BSA+0.1% w/v sodium azide) and transferred to a 96-well V-bottom plate (Greiner) at a density of 1×10⁵ cells per well. mAb and mAb² were titrated in FACS buffer, 1 in 3 dilution across 11 points from a starting working concentration of 400 nM. Plates were centrifuged at 300×g for 3 minutes, supernatant discarded and 50 μL mAb or mAb² solution were added to cells and incubated at 4° C. for 1 hour. Cells were washed with 150 μL of PBS and centrifuged at 300×g for 3 minutes, supernatant was discarded and cell pellet resuspended in 150 μL PBS added. This wash step was repeated twice. Bound mAb or mAb² was detected by addition of 50 μL of anti-human 647 (Jackson ImmunoResearch) diluted to 3 ug/ml in FACS buffer. Cells were incubated for 1 hour at 4° C. in the dark. Cells were washed with 150 μL of PBS and centrifuged at 300 g for 3 minutes, supernatant was discarded and cell pellet resuspended in 150 μL PBS added. This wash step was repeated twice. Cells were fixed with 25 μL 4% v/v paraformaldehyde, incubated for 20 minutes at 4° C., cells were pelleted by centrifugation at 300×g and the supernatant discarded. […] AlexaFluor 647 signal intensity (geometric mean) was measured by flow cytometry using a Beckman Coulter CytoFLEX instrument.
For orientation: Flow cytometry measures light scatter and fluorescence of single cells or particles in a stream.

Assay [2] deals with T2, human ICOS-mFc (Chimerigen) (human, UniProt Q9Y6W8 21-140).
T2 construct: Bought; also called recombinant human ICOS protein; hICOS; not shown: mouse Fc of the bought fusion
T2 sequence: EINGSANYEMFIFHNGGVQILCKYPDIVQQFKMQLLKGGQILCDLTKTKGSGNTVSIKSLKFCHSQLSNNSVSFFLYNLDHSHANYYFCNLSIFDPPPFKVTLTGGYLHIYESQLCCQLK
The experiment in a line: DELFIA ELISA on coated human ICOS-mFc, N=3. How it is done:
(§1) Recombinant ICOS proteins, human ICOS-mFc or mouse ICOS-mFc (Chimerigen) were diluted in 1×PBS and added to Black Hi-bind plates (Griener) at 1 μg/ml, 50 μl/well. Recombinant PD-L1 proteins, human PD-L1-Flag-His or mouse-His were diluted in 1×PBS and added to Black Hi-bind plates (Griener) at 4 μg/ml, 50 μl/well. The plates were left overnight at 4° C. The next day plates were washed 3× with 300 μl/well of 1×PBS+0.1% Tween and blocked with 200 ul/well of 1×PBS+1% BSA blocking buffer for 1 hr at RT on a plate shaker. Plates were washed 3× with 300 μl/well of 1×PBS+0.1% Tween.
(§2) However, human-PD-L1 mAb² antibodies were diluted in 1×PBS+0.1% BSA buffer and diluted 1 in 2 from a starting working concentration of 0.066 μM over an 11 point titration. Titrated antibodies were added to the plates, 50 μl/well and left to incubate for 1 hr at R.T on a plate shaker. Plates were washed 3× with 300 μl/well of 1×PBS+0.1% Tween.
(§3) DELFIA® Eu-labelled Anti-human IgG (Perkin-Elmer) was diluted 1:500 in DELFIA Assay buffer (Perkin-Elmer) and added to the assay plate (50 μl/well), left to incubate for 1 hr at RT on a plate shaker. […] After incubation, assay was read on Envision plate reader (Perkin Elmer), Time-resolved fluorescence (TRF) was measured at 615 nm.
On the technique in general: In an ELISA, binding on a coated surface is turned into a signal by an enzyme label.

In assay [3] the target is T1, human ICOS expressed on cells. The experiment in a line: cell-based or functional assay.
The target of assay [4] is T3, Biotinylated human ICOS protein (human, UniProt Q9Y6W8 21-140, limits assumed, biotinylated (sites not given)).
T3 construct: Captured on the NLC chip in the avidity SPR
T3 sequence: T2 sequence
Description: SPR ProteOn avidity format, biotinylated human ICOS on NLC chip, antibody analyte, 25 C. On the procedure:
(§4) Biotinylated human ICOS protein diluted at 7.5 μg/mL in running buffer (1× HBS-EP+ Buffer Technova, cat. No. H8022) was captured on a NLC sensor chip (Bio-Rad, cat No 1765021). The surface was then blocked using biocytin (Sigma Aldrich, cat No B1758) at 1 mg/mL.
(§5) The assay was carried out at 25° C.
(§6) The buffer injection (i.e. 0 nM) was used to double reference the sensorgrams. The analysis was carried out using the equilibrium model inherent to the ProteOn's analysis software for each mAb² construct.

For assay [5], the target named is T4, mouse ICOS-mFc (Chimerigen) (mouse, UniProt Q9WVS0 21-141, limits assumed).
T4 construct: Bought; also called recombinant mouse ICOS protein; mICOS; not shown: mouse Fc of the bought fusion
T4 sequence: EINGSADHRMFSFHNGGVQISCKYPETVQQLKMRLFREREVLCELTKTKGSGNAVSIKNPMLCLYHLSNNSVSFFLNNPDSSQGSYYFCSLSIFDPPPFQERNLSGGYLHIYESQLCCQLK
Description: DELFIA ELISA on coated mouse ICOS-mFc, mean. On the procedure: as §1, §2, §3

In assay [6] the target is T3, Biotinylated human ICOS protein. The experiment in a line: SPR ProteOn avidity format, biotinylated human ICOS on NLC chip, antibody analyte; apparent KD from equilibrium, 25 C. How it is done:
as §4, §5, §6

In assay [7] the target is T4, mouse ICOS-mFc (Chimerigen). Description: HTRF, mouse ICOS-mFc, competitor mouse B7-H2-Alexa 647, mean as told in the text (table prints 0.37). In general terms: Time-resolved FRET reads energy transfer from a long-lived donor to a nearby acceptor.

B1: STIM001 (antibody, human IgG1, kappa)
heavy: not shown
light: DIVMTQSPLSLPVTPGEPASISCRSSQSLLHSNEYNYLDWYLQKPGQSPQLLIFLGSNRASGVPDRFSGSGSGTDFTLKITRVEAEDVGIYYCMQSLQTPLTFGGGTKVEIKRTVAAPSVFIFPPSDEQLKSGTASVVCLLNNFYPREAKVQWKVDNALQSGNSQESVTEQDSKDSTYSLSSTLTLSKADYEKHKVYACEVTHQGLSSPVTKSFNRGEC
notes: Anti-ICOS monospecific antibody, tested as human IgG1; also called STIM001 monoclonal IgG1 antibody
For orientation: EC50 means the midpoint of the concentration-response curve. A low value points to greater potency. As a reminder, the koff is the first-order rate constant of dissociation. Read a high koff as a short-lived complex. Consider B1, for which it took 30.1 nM to reach a half-maximal effect in assay [1] (EC50). Further, it took 41.3 nM to reach a half-maximal effect in assay [2] (EC50). Further, in assay [3], the “EC50 of IFN-γ production, plate-bound antibody, human T-cells + CD3/CD28 beads, donor 276” value is ~9.9 nM; the “EC50 of IFN-γ production, plate-bound antibody, human T-cells + CD3/CD28 beads, donor 278” value is ~10.2 nM; the “EC50 of IFN-γ production, plate-bound antibody, human T-cells + CD3/CD28 beads, donor 289” value was ~11.2 nM; the “EC50 of IFN-γ production, plate-bound antibody, human T-cells + CD3/CD28 beads, donor 295” value came to 14.5 nM. Also, the “EC50 of IFN-γ production, plate-bound antibody, human T-cells + CD3/CD28 beads, median” value in assay [3] was 10.7 nM. Also, in assay [4], the dissociation rate constant (koff) came out at 0.000456 s⁻¹. In assay [5], this molecule registered an EC50 of 11.4 nM. The Kd in assay [6] is 57.1 nM.

B2: STIM003 (antibody, human IgG1, kappa)
heavy: not shown
light: EIVLTQSPGTLSLSPGERATLSCRASQSVSRSYLAWYQQKRGQAPRLLIYGASSRATGIPDRFSGDGSGTDFTLSISRLEPEDFAVYYCHQYDMSPFTFGPGTKVDIKRTVAAPSVFIFPPSDEQLKSGTASVVCLLNNFYPREAKVQWKVDNALQSGNSQESVTEQDSKDSTYSLSSTLTLSKADYEKHKVYACEVTHQGLSSPVTKSFNRGEC
notes: Anti-ICOS monospecific antibody, tested as human IgG1; also called STIM003 monoclonal IgG1 antibody
A word on the IC50: it is the midpoint of a concentration-inhibition curve. High values mean a need for much substance, low ones inhibition by little substance. As for B2, the EC50 in assay [1] was determined as 7.22 nM. In assay [2], this molecule came in with a concentration for a half-maximal effect (EC50) of 0.727 nM. In addition, in assay [3], the “EC50 of IFN-γ production, plate-bound antibody, human T-cells + CD3/CD28 beads, donor 276” value was 7.1 nM; the “EC50 of IFN-γ production, plate-bound antibody, human T-cells + CD3/CD28 beads, donor 278” value stood at 3.8 nM; the “EC50 of IFN-γ production, plate-bound antibody, human T-cells + CD3/CD28 beads, donor 289” value is ~4 nM; the “EC50 of IFN-γ production, plate-bound antibody, human T-cells + CD3/CD28 beads, donor 295” value was ~11.6 nM. In assay [3], the “EC50 of IFN-γ production, plate-bound antibody, human T-cells + CD3/CD28 beads, median” value was determined as 5.55 nM. Further, the off-rate (koff) in assay [4] worked out at 0.000449 s⁻¹. Moreover, the response in assay [5] was half-maximal at 0.38 nM (EC50). The 50% inhibitory concentration (IC50) in assay [7] was found to be 0.12 nM.
